Measurements reported in US20090180952A1.

Legend:
[1] = molecular target: recombinant soluble urokinase plasminogen activator receptor (suPAR, aa 1-279) (UniProt Q03405); assay: direct binding assay (format and antigen form not stated)
[2] = molecular target: uPAR on the surface of HeLa cells, Q03405; assay: 125I-ATN-658 saturation binding to HeLa cells
uPAR on the surface of HeLa cells, Q03405, sequence (Q03405 23-305 limits assumed): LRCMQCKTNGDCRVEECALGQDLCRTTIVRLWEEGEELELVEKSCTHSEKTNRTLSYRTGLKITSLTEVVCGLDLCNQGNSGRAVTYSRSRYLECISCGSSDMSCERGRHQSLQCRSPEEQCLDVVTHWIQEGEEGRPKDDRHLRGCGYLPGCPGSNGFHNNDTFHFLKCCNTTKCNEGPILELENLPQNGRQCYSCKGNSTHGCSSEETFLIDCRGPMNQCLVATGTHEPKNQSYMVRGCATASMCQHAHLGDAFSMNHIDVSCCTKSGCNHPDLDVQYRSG

B1: mAb ATN-615 (antibody, IgG1, V domains shown)
VH: VKLQQSGPEVVKPGASVKISCKASGYSFTNFYIHWVKQRPGQGLEWIGWIFHGSDNTEYNEKFKDKATLTADTSSSTAYMQLSSLTSEDSAVYFCARWGPHWYFDVWGQGTTVTVSS
VL: DIVLTQSPDITAASLGQKVTITCSASSSVSYMHWYQQKSGTSPKPWIFEISKLASGVPARFSGSGSGTSYSLTISSMEAEDAAIYYCQQWNYPFTFGGGTKLEIKR
Q: How did the Kd [1] turn out when B1 was run?
A: 2 nM

B2: mAb ATN-658 (antibody, IgG1, V domains shown)
VL: not shown
VH: VQLQESGPELVKTGASVKISCKASGYSFTSYYMHWVKQSHGKSLEWIGEINPYNGGASYNQKIKGRATFTVDTSSRTAYMQFNSLTSEDSAVYYCARSIYGHSVLDYWGQGTTVTVS
modifications: not checked
Q: For B2, which Kd [2] is on record?
A: 1.5 nM
